Source: PMC7398557 (Nature, 2020)

Target: the molecule itself
Assay: cryo-EM structure

B1: human acyl-CoA:diacylglycerol acyltransferase 1 (DGAT1) (enzyme)
chain: MGDRGSSRRRRTGSRPSSHGGGGPAAAEEEVRDAAAGPDVGAAGDAPAPAPNKDGDAGVGSGHWELRCHRLQDSLFSSDSGFSNYRGILNWCVVMLILSNARLFLENLIKYGILVDPIQVVSLFLKDPYSWPAPCLVIAANVFAVAAFQVEKRLAVGALTEQAGLLLHVANLATILCFPAAVVLLVESITPVGSLLALMAHTILFLKLFSYRDVNSWCRRARAKAASAGKKASSAAAPHTVSYPDNLTYRDLYYFLFAPTLCYELNFPRSPRIRKRFLLRRILEMLFFTQLQVGLIQQWMVPTIQNSMKPFKDMDYSRIIERLLKLAVPNHLIWLIFFYWLFHSCLNAVAELMQFGDREFYRDWWNSESVTYFWQNWNIPVHKWCIRHFYKPMLRRGSSKWMARTGVFLASAFFHEYLVSVPLRMFRLWAFTGMMAQIPLAWFVGRFFQGNYGNAAVWLSLIIGQPIAVLMYVHDYYVLNYEAPAAEA
In the case of B1, the “stoichiometry N” value is reported as 2.
